Laboratory results published in the supplement of paper PMC7877785.
± gives the uncertainty stated by the source.

Assay: self-splicing fitness, log relative to wild type (ln ratio); higher = more splicing; Tetrahymena group I intron in knt gene, E. coli kanamycin selection, DiMSum; sequences stand for … in CUCUCU…GGAGGGAAAAGUUAUCAGGCAUGCACCUGGUAGCUAGUCUUUAAACCAAUAGAUUGCAUCGGUUUAAAAGGCAAGACCGUCAAAUUGCGGGAAAGGGGUCAACAGCCGUUCAGUACCAAGUCUCAGGGGAAACUUUGAGAUGGCCUUGCAAAGGGUAUGGUAAUAAGCUGACGGACAUGGUCCUAACCACGCAGCCAAGUCCUAAGUCAACAGAUCUUCUGUUGAUAUGGAUGCAGUUCACAGACUAAAUGUCGGUCGGGGAAGAUGUAUUCUUCUCAUAAGAUAUAGUCGGACCUCUCCUUAAUGGGAGCUAGCGGAUGAAGUGAUGCAACACUGGAGCCGCUGGGAACUAAUUUGUAUGCGAAAGUAUAUUGAUUAGUUUUGGAGUACUCGUGGUCG
Outline: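 Library with all eight P1ex-region intron nucleotides randomised, intron inside the knt kanamycin-resistance gene on pET-22b(+), in E. coli BL21(DE3). Cells grew overnight at 37°C or 30°C on LB agar with or without 25 μg/mL kanamycin (plus 100 μg/mL carbenicillin, 50 μM IPTG, 0.2% rhamnose), in six replicate transformations. Pooled colonies were amplicon-sequenced on Illumina HiSeq 2500. DiMSum fitness is the error-weighted combination of wild-type-normalised replicate fold changes, kanamycin versus none.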

Row | Sequence | self-splicing fitness (ln) (30 °C) | self-splicing fitness (ln) (37 °C)
1 | AGGGAGCAAUAUUACGAGAC | -3.09 ± 0.4 | -2.77 ± 0.36
2 | UAGGAGCAAUAUUACGCGUG | -2.31 ± 0.12 | -0.579 ± 0.12
3 | CCACAGCAAUAUUACGACGU | -3.18 ± 0.18 | -2.52 ± 0.15
4 | AGAUAGCAAUAUUACGUAUC | -2.64 ± 0.17 | -1.71 ± 0.18
5 | CUAUAGCAAUAUUACGAGCG | 0.114 ± 0.086 | 0.29 ± 0.11
6 | UAUUAGCAAUAUUACGCUCC | -2.75 ± 0.35 | 
7 | CGAAAGCAAUAUUACGAUUC |  | -2.13 ± 0.26
8 | AGCAAGCAAUAUUACGGAUG | -2.27 ± 0.14 | -2.17 ± 0.17
9 | AACAAGCAAUAUUACGGACC | -1.84 ± 0.1 | -0.201 ± 0.11
10 | CGGUAGCAAUAUUACGUGAG | -0.593 ± 0.059 | 0.467 ± 0.092
11 | UUCGAGCAAUAUUACGGGUC | -3.03 ± 0.38 | -2.89 ± 0.43
12 | GGCUAGCAAUAUUACGCGCC | -3.69 ± 0.34 | -2.17 ± 0.38
13 | GACGAGCAAUAUUACGCAAC | -2.11 ± 0.29 | -2.31 ± 0.42
14 | CCAAAGCAAUAUUACGCCGG | -5.01 ± 0.41 | -2.38 ± 0.2
15 | AAGUAGCAAUAUUACGAUCG | -1.43 ± 0.1 | -0.453 ± 0.15
16 | UCACAGCAAUAUUACGGGCG | -0.948 ± 0.094 | -1.07 ± 0.093
17 | AGGCAGCAAUAUUACGUGGU | -3.88 ± 0.14 | -1.54 ± 0.1
18 | CCAAAGCAAUAUUACGGCGA | -3.26 ± 0.21 | -3.01 ± 0.19
19 | AACCAGCAAUAUUACGGACG | 0.131 ± 0.059 | -0.143 ± 0.07
20 | AUUAAGCAAUAUUACGAGCU | -0.659 ± 0.14 | -0.821 ± 0.2
21 | AUGUAGCAAUAUUACGCAUA | -2.46 ± 0.28 | -1.85 ± 0.26
22 | UGCUAGCAAUAUUACGUGUG | -1.63 ± 0.08 | -0.822 ± 0.096
23 | UCUAAGCAAUAUUACGGCAA | -1.94 ± 0.34 | -1.22 ± 0.21
24 | AAGUAGCAAUAUUACGCCAG | -2.64 ± 0.21 | -0.996 ± 0.24
25 | CCCCAGCAAUAUUACGAUAU | -3.52 ± 0.2 | -1.58 ± 0.21
26 | CAUCAGCAAUAUUACGCAGG | -0.441 ± 0.062 | -1.15 ± 0.079

Row | Sequence | self-splicing fitness (ln) (30 °C) | self-splicing fitness (ln) (37 °C)
27 | ACACAGCAAUAUUACGCAUA | -2.45 ± 0.08 | -1.49 ± 0.072
28 | CCCGAGCAAUAUUACGAUCU | -3.09 ± 0.19 | -2.68 ± 0.23
29 | AAAGAGCAAUAUUACGUCUA | -1.12 ± 0.093 | -0.882 ± 0.093
30 | GAAGAGCAAUAUUACGGUCU | -2.52 ± 0.26 | -0.469 ± 0.24
31 | GAUGAGCAAUAUUACGAUAA | -3.49 ± 0.43 | -1.6 ± 0.33
32 | AUCCAGCAAUAUUACGACUG | -3.86 ± 0.3 | -2.95 ± 0.28
33 | GCCAAGCAAUAUUACGUCGU | -0.691 ± 0.058 | -0.359 ± 0.066
34 | AUGUAGCAAUAUUACGAUAA | -1.76 ± 0.13 | -1 ± 0.15
35 | ACAAAGCAAUAUUACGUGAG | -0.439 ± 0.049 | -0.4 ± 0.079
36 | UAAUAGCAAUAUUACGCAAA | -2.03 ± 0.18 | -1.27 ± 0.15
37 | ACGGAGCAAUAUUACGUUAU |  | -2.94 ± 0.23
38 | UGCAAGCAAUAUUACGGUUA | 0.147 ± 0.075 | 0.11 ± 0.078
39 | UUUGAGCAAUAUUACGGCUC | -2.38 ± 0.42 | -1.39 ± 0.46
40 | GGGUAGCAAUAUUACGAAGU | -1.74 ± 0.23 | -1.57 ± 0.24
41 | UAUAAGCAAUAUUACGUAAA | -2.23 ± 0.12 | -0.632 ± 0.14
42 | GUCUAGCAAUAUUACGGCGU | 0.142 ± 0.069 | 0.0882 ± 0.091
43 | GGGAAGCAAUAUUACGGAUC | -0.0316 ± 0.077 | -0.684 ± 0.088
44 | GAUCAGCAAUAUUACGCUGC | -3.18 ± 0.19 | -2.18 ± 0.23
45 | CGCUAGCAAUAUUACGGGAU | -3.77 ± 0.36 | -2.4 ± 0.26
46 | CGACAGCAAUAUUACGGGAC | -4.58 ± 0.26 | -1.71 ± 0.14
47 | GAAAAGCAAUAUUACGCACC | -0.811 ± 0.28 | -0.377 ± 0.31
48 | UUGCAGCAAUAUUACGGCUU | 0.193 ± 0.069 | 0.35 ± 0.095
49 | AACGAGCAAUAUUACGGGGC | -4.03 ± 0.27 | -3.46 ± 0.35
50 | CUCCAGCAAUAUUACGGAUG | -2.46 ± 0.13 | -1.38 ± 0.14
51 | UUUCAGCAAUAUUACGAACG | -0.381 ± 0.11 | 0.41 ± 0.14
52 | ACCAAGCAAUAUUACGAAGG | -2.34 ± 0.12 | -1.09 ± 0.14

Row | Sequence | self-splicing fitness (ln) (30 °C) | self-splicing fitness (ln) (37 °C)
53 | UAAUAGCAAUAUUACGACCU | -1.69 ± 0.15 | -0.4 ± 0.15
54 | AAAGAGCAAUAUUACGGGAG | -3.34 ± 0.21 | -2.8 ± 0.27
55 | CCAGAGCAAUAUUACGACGA | -2.94 ± 0.25 | -2.34 ± 0.3
56 | CCAAAGCAAUAUUACGGGCC | -2.51 ± 0.46 | -2.23 ± 0.42
57 | AACAAGCAAUAUUACGCAAC | -3.89 ± 0.22 | -1.63 ± 0.12
58 | GGCCAGCAAUAUUACGUAGC | -2.24 ± 0.16 | 0.278 ± 0.16
59 | UCCUAGCAAUAUUACGUCCG | -3.98 ± 0.25 | -3.81 ± 0.34
60 | GUCGAGCAAUAUUACGAGCC | -3.81 ± 0.47 | 
61 | AAAUAGCAAUAUUACGUGCU | -0.869 ± 0.11 | -1.22 ± 0.15
62 | CAAGAGCAAUAUUACGUAGC |  | -1.86 ± 0.43
63 | ACGAAGCAAUAUUACGAAUG | -1.51 ± 0.11 | -2.67 ± 0.18
64 | ACAGAGCAAUAUUACGAUAG | -2.78 ± 0.26 | -3.02 ± 0.35
65 | GCGGAGCAAUAUUACGCUUU | -3.1 ± 0.31 | -3.21 ± 0.28
66 | GACGAGCAAUAUUACGCGCU | -3.04 ± 0.48 | -2.87 ± 0.31
67 | AUAAAGCAAUAUUACGGUAU | -0.836 ± 0.068 | -0.0795 ± 0.1
68 | UGUGAGCAAUAUUACGGGCA | -0.886 ± 0.069 | -0.176 ± 0.081
69 | GUUCAGCAAUAUUACGCCGG | -2.55 ± 0.21 | -0.806 ± 0.28
70 | UAAAAGCAAUAUUACGCAUA | -1.44 ± 0.088 | -0.782 ± 0.1
71 | GACAAGCAAUAUUACGUAAA | -1.75 ± 0.069 | -1.09 ± 0.091
72 | CGUAAGCAAUAUUACGGACA | -0.986 ± 0.099 | -1.18 ± 0.12
73 | AACAAGCAAUAUUACGUCAC | -3.77 ± 0.22 | -2.29 ± 0.23
74 | CGUUAGCAAUAUUACGACCC | -2.92 ± 0.43 | 
75 | AUGCAGCAAUAUUACGCGAA | -1.76 ± 0.13 | -1.03 ± 0.11
76 | GUACAGCAAUAUUACGGCUC | 0.189 ± 0.083 | 1.05 ± 0.097
77 | AAGUAGCAAUAUUACGAUAG | -2.72 ± 0.16 | -2.64 ± 0.36
78 | GGGUAGCAAUAUUACGCAGA | -2.97 ± 0.28 | -1.93 ± 0.26
